Assay [1] addresses T1, HMGB1 in joint lysate of adjuvant induced arthritis (AIA) rats (rat, UniProt P63159 2-215).
T1 construct: also called HMGB1 from arthritis joints; joint lysate HMGB1
T1 sequence (looked up): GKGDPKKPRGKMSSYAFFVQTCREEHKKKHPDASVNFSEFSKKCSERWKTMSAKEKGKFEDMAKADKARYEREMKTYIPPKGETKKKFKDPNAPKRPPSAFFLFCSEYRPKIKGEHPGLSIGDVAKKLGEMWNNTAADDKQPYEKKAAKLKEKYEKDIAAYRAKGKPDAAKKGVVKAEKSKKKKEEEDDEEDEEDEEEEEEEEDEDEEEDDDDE
Briefly: immunoprecipitation from AIA rat joint lysate, Western blot; paragraph 81 gives lane 2 as S16. On the procedure: Immunoprecipitation and Western Blot: Anti-HMGB1 mAbs (G4 and S6) and isotype control were first biotinylated using EZ-Link Sulfo-NHS-LC-Biotin as instructed by the manufacturer (Pierce). After labeling, the mAb was tested for binding to HMGB1 by ELISA with unlabeled mAbs as controls. The biological samples, joint lysate (30 μl), was mixed with […] biotinylated G4, S6 or isotype control overnight at 4° C. in 300 μl IP buffer [containing 1×PBS, pH 7.2 (Invitrogen), 0.1% Tween 20, 0.5 M sodium chloride, 10 mM sodium butyrate, and a 1:100 dilution of Phosphatase Inhibitor Cocktail I (Sigma)]. For sepsis sera, Tween 20, sodium chloride, sodium butyrate, and Phosphatase Inhibitor Cocktail I were added to 500 μl sera with the same final concentration as IP buffer. Streptavidin Sepharose beads (GE Healthcare) were blocked in 4% BSA-PBS overnight at 4° C., then washed three times with PBS and resuspended in 1×PBS resulting in 50% slurry. The bead slurry (60 μl) was then added to the overnight mAb/sample mixture and mixed for 20 minutes at room temperature. The beads were washed once with PBS, five times with IP Buffer and then washed twice with PBS by spinning at 1000 g for two min. […] The bands were detected by LumiGlo substrate solution (KPL) after washing.

The target of assay [2] is T2, nuclear HMGB1 in fixed HUVEC cells (UniProt P09429 1-215, limits assumed).
T2 construct: whole, on cells; immunostaining
T2 sequence (looked up): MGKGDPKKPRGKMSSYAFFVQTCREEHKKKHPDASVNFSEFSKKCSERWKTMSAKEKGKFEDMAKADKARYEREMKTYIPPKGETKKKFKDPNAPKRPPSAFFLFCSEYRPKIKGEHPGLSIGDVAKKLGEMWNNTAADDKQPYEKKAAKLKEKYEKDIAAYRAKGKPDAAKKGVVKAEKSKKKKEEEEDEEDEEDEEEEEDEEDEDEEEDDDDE
Briefly: immunofluorescence on fixed HUVEC, anti-human IgG-FITC; paragraph 81 gives the lower panels as G4. On the procedure: Immunofluorescence: Intracytoplasmic (ic) HMGB1 was quantitated by direct immunofluorescence. HUVEC were harvested by trypsin-EDTA treatment and seeded on a glass coverslip. Once the cells are settled, they were stimulated with 0.2 μg/ml of LPS (Sigma) for 4 hours. The cells were fixed in 2% paraformaldehyde for 15 min and then permeabilized in 0.2% Triton X-100 for 2 min. Fixed and permeabilized cells were incubated with anti-HMGB1 antibodies at 1 μg/ml for 1 hour at room temperature. Cells were then washed to remove excess or nonspecifically bound primary antibody followed by incubation with anti human IgG conjugated with fluorescence (Pierce). The sections were mounted with fluoromount (Southern Associates, Birmingham, Ala.), and the images were processed with a Nikon microscope (Japan) and a SPOT imaging system (Diagnostic Instrument).

Assay [3] concerns the target T1, HMGB1 in joint lysate of adjuvant …. As to the kind of experiment: sandwich ELISA: antibody captured on anti-human Fc, AIA joint lysate added, mouse anti-HMGB1 detection, OD 450. On the procedure: HMGB1 Detection from Biological Samples: For detection of the HMGB1 from AIA joint homogenates and peritonitis sera, sandwich ELISA was performed. Goat anti-human Fc (Pierce) 14 μg/ml in PBS was coated on Immunlon IV microtiter plate over night at 4° C. After washing and blocking with 5% milk 1 hr at room temperature, G4 or S6 in blocking buffer (10 μg/ml) were added to each well of the blocked plate. The plate was washed 1 hour later and 25 μl of AIA homogenates containing 0.8 μg/ml of HMGB1 or peritonitis sera containing 7 μg/ml of HMGB1 in 0.5 M NaCl/blocking buffer were added to the wells at two fold serial dilutions. The unbound materials were removed by washing one hr after incubation. The bound HMGB1 was detected by a mouse anti-HMGB1 antibody at 2 μg/ml followed by an anti-mouse antibody conjugated with horseradish peroxidase. Mouse peritonitis sera was obtained by heart puncture 7 days after infection with heat killed staphylococcus aureus. Joint lysate was prepared from the whole paw of AIA rats as described in Example 6 below. Human sepsis sera were purchased from a commercial source.
In general terms: ELISA stands for enzyme-linked immunosorbent assay.

In assay [4] the target is T3, recombinant HMG1 produced in E. coli as a calmodulin binding protein (CBP) fusion (human).
T3 construct: also called rHMG1; rHMGB1
Briefly: sandwich ELISA, captured antibody and soluble HMG1, OD 450. On the procedure:
Sandwich ELISA (soluble HMG1): Immunoplates (EIA/RIA plate, High binding, Costar) were coated with anti human IgG Fc at 10 μg/ml in PBS (pH 7.2) and incubated at 4° C. overnight. The coating reagent was removed and the plates were rinsed briefly with PBS. The plates were then blocked with 4% milk for 1 hour at 37° C. and rinsed with PBS. The anti-HMG1 antibodies were diluted in 4% milk. For serial dilutions, the antibodies were used at a starting concentration of 20 μg/ml. The diluted anti-HMG1 antibodies were then added into plate and incubated for 1 hr at 37° C. The plate was then washed 10 times with PBST (PBS/0.1% tween 20) and incubate with antigen (HMGB1, 2 μg/ml; or 0.7 μg/ml for native HMGB1) in 4% milk and incubated at 37° C. for 1 h. The plate was then wash 10 times and incubated with mouse anti-HMGB1, 1 μg/ml in 4% milk at 37° C. for 1 h. The plate was washed 10 times and incubated with anti-mouse IgG-HRP at 1:1000 at 37° C. for 1 h. The plate was then washed and developed. HRP activity was detected with Sureblue HRP substrate (KPL). Plates were read at 450 nm using a Kinetic Microplate Reader (Molecular Devices).

This note sets out measurements from patent US20110287023A1 (AstraZeneca / MedImmune, published 2011).

B1: human anti-HMG1 antibody S16 (antibody, IgG1, V domains shown)
VH: EVQLLESGGGLVQPGGSLRLSCAASGFTFSWYSMLWVRQAPGKGLEWVSYISPSGGFTNYADSVKGRFTISRDNSKNTLYLQMNSLRAEDTAVYYCARWDYNSGWYYDHWGQGTLVTVSS
VL: DIQMTQSPDTLSLSPGERATLSCRASQSVNSRNLAWYQQKPGQAPRLLIYGASTRATGIPDRFSGSVSGTEFTLTISSLQPDDFATYYCQQYNSYFTFGQGTKLEIK
notes: full length IgG1 made from a human Fab phage clone; also called ATCC PTA-6259
Consider B1, for which the binding result in assay [1] is “binds”.

B2: human anti-HMG1 antibody G4 (antibody, IgG1, V domains shown)
VH: EVQLLESGGGLVQPGGSLRLSCAASGFTFSWYDMTWVRQAPGKGLEWVSSISPSGGYTKYADSVKGRFTISRDNSKNTLYLQMNSLRAEDTAVYYCTTEFYDYLDVWGKGTTVTVSS
VL: DIQMTQSPGTLSLSPGEGATLSCRASQSVSSTYLAWYQQKPGQAPRLLIYEASKRATGTPARFSGSGSGTDFTLSISSLEPEDFAVYYCQHRHNWPPQWTFGQGTKVEVK
notes: full length IgG1 made from a human Fab phage clone; also called ATCC PTA-6258
As for B2, the binding result in assay [2] and in assay [3] was “binds” throughout.

B3: human anti-HMG1 antibody E11 (antibody, IgG1, V domains shown)
VH: EVQLLESGGGLVQPGGSLRLSCAASGFTFSRYQMNWVRQAPGKGLEWVSSISPSGGHTHYADSVKGRFTISRDNSKNTLYLQMNSLRAEDTAVYYCAKDGRQGKISTVDHWGQGTLVTVSS
VL: DIQMTQSPGTLSLSPGERATLSCRASQSVRSNFLAWYQQKPGQAPRLLIYGASRRASGIPDRFSGSGFGADFTLSISRLEPEDFAVYYCQQYGSSPNTFGQGSRVEIK
notes: full length IgG1 made from a human Fab phage clone
For orientation: EC50 (read off the curve) means the concentration giving half of the maximal effect. For B3, the “EC50 (read off the curve)” value in assay [4] is roughly 0.4 µg/mL.
